What was measured:
[1] = target: FLAG-tagged full-length AFDN (mouse) (UniProt Q9QZQ1); assay: co-IP; HEK 293T cells co-transfected; anti-FLAG IP on Protein G sepharose, Western blot with anti-GFP or antibodies to the endogenous protein; TX100 buffer (20 mM Tris pH 7.5, 150 mM NaCl, 1% NP-40, 1% Triton X-100, 5 mM MgCl2 for GTPases); also after FastAP phosphatase treatment of lysates; with or without co-expressed GTPases (densitometry in Fig. 4g)
[2] = target: purified AFDN FHA domain Δex9 (mouse); assay: ITC; MicroCal ITC200, 25 °C, 20 mM Tris-HCl pH 7.5, 150 mM NaCl, 1 mM DTT

FLAG-tagged full-length AFDN (mouse), sequence (Q9QZQ1 whole entry, the tested form may be a part): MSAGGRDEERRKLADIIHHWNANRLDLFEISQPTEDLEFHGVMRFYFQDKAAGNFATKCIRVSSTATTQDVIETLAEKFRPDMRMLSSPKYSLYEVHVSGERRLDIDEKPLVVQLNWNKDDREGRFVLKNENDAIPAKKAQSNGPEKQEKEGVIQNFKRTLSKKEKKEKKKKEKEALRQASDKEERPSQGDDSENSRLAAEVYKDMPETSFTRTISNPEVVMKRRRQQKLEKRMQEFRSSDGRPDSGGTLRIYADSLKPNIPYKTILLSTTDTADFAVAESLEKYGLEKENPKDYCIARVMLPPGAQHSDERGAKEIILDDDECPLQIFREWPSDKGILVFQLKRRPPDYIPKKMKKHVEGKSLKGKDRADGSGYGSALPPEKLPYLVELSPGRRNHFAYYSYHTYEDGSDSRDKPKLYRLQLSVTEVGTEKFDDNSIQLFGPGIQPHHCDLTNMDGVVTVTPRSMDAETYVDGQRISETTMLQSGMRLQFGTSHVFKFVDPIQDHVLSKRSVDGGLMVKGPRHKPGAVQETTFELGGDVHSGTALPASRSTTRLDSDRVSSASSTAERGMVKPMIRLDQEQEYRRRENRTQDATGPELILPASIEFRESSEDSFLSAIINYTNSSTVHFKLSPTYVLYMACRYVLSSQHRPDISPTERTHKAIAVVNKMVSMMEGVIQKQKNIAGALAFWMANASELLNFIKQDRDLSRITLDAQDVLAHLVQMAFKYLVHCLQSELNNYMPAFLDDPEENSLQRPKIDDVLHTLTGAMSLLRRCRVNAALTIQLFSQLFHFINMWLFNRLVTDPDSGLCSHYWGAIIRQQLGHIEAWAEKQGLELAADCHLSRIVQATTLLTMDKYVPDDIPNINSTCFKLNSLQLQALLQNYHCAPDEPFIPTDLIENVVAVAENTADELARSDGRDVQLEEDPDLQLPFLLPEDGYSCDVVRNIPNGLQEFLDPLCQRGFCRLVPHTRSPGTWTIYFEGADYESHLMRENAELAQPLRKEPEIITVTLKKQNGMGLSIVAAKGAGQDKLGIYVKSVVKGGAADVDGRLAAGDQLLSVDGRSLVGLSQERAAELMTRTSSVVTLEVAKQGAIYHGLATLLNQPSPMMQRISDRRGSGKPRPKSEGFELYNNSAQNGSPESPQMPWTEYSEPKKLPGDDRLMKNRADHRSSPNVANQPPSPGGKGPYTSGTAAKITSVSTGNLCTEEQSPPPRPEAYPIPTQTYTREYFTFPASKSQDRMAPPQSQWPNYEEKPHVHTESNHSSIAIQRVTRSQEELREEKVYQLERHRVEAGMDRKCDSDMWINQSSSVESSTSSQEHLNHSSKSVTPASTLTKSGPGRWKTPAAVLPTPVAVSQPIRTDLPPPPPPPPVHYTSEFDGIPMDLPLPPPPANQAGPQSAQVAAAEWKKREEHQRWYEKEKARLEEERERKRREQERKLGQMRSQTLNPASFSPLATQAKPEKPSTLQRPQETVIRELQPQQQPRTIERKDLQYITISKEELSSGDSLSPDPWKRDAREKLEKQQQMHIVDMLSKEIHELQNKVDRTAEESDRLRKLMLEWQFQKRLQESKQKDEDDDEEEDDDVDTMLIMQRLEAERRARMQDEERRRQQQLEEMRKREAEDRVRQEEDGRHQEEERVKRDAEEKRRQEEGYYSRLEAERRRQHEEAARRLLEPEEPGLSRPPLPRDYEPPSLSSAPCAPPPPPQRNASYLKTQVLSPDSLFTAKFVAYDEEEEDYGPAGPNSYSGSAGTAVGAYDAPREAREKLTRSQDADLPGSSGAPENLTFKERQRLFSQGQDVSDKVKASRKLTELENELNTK
purified SCRIB PDZ1 domain (718-820), sequence (Q14160 718-820): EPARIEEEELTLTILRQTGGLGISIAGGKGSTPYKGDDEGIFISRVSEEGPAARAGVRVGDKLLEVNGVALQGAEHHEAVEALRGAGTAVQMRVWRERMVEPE

| fold increase of SCRIB co-precipitated with AFDN, KRAS-G12V co-expressed, against wild-type KRAS [1] [fold] | fold increase of SCRIB co-precipitated with AFDN, RAP1B-G12V co-expressed, against wild-type KRAS [1] [fold] | fold increase of SCRIB co-precipitated with AFDN, RAP2C-G12V co-expressed, against wild-type KRAS [1] [fold] | Kd [2] [µM] | Substance |
| --- | --- | --- | --- | --- |
| 8 | 1.7 | 2.6 |  | EGFP-tagged full-length SCRIB (from UniProt Q14160 1-1655) (natural protein) |
|  |  |  | 22.9 | purified SCRIB PDZ1 domain (718-820) (from UniProt Q14160 718-820) (domain or fragment) |

From article PMC9355967
